Measurements reported in patent US7629135B2, “Toll-like receptor agonists and antagonists and methods of use thereof” (The Board of Trustees of the University of Illinois, priority 2006, dated 2009).

Legend:
[1] = tested on: mouse bone marrow derived macrophages (BMDM); assay: G-CSF secretion in mouse BMDM (ELISA); assay type: cell-based; settings: for secreted mouse G-CSF: mouse BMDM
Protocol: SAA induces G-CSF expression in monocytes and macrophages: To determine whether SAA plays a role in neutrophilia, the ability of SAA to stimulate G-CSF expression was investigated. Human peripheral blood monocytes (PBMC) were incubated with SAA, and the concentration of secreted G-CSF in the culture medium was determined at various time points after stimulation. The concentration of SAA used in this experiment (1 μM) was well within its physiological range (0.08 μM to 80 μM). […] Since subsequent studies used mice for measurement of G-CSF secretion and neutrophilia, SAA-induced G-CSF expression in mouse bone marrow derived macrophages (BMDM) was determined, of which 98% were F4/80^+ CD14^+ based on flow cytometry analysis. […] The basal level of G-CSF remained stable at approximately 42 pg/ml/10^6 cells over the entire course of incubation.
It was next determined whether induction of G-CSF expression was a primary function of SAA or resulted from contaminating LPS in the SAA preparation. The LPS concentration in the recombinant SAA preparation was ≦0.1 ng/μg protein, translating into ≦1.14 ng/ml LPS in a typical experiment with 1 μM SAA. LPS at this or 10-fold higher concentrations was tested for its effect on the expression of G-CSF. […] Given that most proteins are heat labile while LPS is heat resistant, the ability of heat-treated SAA (1 μM) and LPS (1 μg/ml) to stimulate G-CSF secretion in mouse BMDM was examined. After boiling for 25 min, LPS retained its ability to induce G-CSF production by ˜83%. […] In parallel experiments, polymyxin B, an amphiphilic cyclic polycationic peptide that specifically binds to LPS and blocks the cytokine-inducing effect of LPS (Stokes et al., 1989), was used to treat SAA or LPS prior to incubation with BMDM. […] Under the same experimental conditions, polymyxin B reduced LPS-stimulated G-CSF secretion by more than 70%.
It was previously shown that FPRL1 is involved in SAA-induced IL-8 production in human neutrophils (He et al., 2003). It has also been shown that SAA binds to FPRL1 and stimulates the production of matrix metalloproteinase (O'Hara et al., 2004). […] A role of TLR2 in SAA-stimulated G-CSF expression was examined.
Cell preparation and culture: Human peripheral blood monocytes were prepared from fresh, heparinized venous blood by Ficoll-Hypaque density-gradient centrifugation. Blood drawing followed a protocol approved by the Institutional Review Board at the University of Illinois at Chicago. Purified monocytes (>93% CD14^+ by flow cytometry) were kept in nonadherent condition in RPMI 1640 containing 0.5% FBS and maintained at 37° C. Mouse macrophages were differentiated from bone marrow cells. Mouse bone marrow cells were aspirated from the femurs of 8-12-week-old mice and cultured at 37° C. in 5% CO2 in RPMI 1640 medium containing 10% FBS, 15% L-cell conditional medium, 10 mM HEPES, 2 mM L-glutamine, 100 IU/ml penicillin, and 50 μg/ml streptomycin. The medium was changed every three days. Macrophages (about 98% F4/80+ by flow cytometry) were obtained after 7 days of culture. The mouse macrophage cell line RAW264.7 cells were maintained in DMEM medium supplemented with 10% FBS, 10 mM HEPES, 2 mM L-glutamine, 100 IU/ml penicillin, and 50 μg/ml streptomycin. TLR2-HeLa cells were generated by transfection of HeLa cell with the expression construct pUNO-hTLR2 (InvivoGen). Stable transfectants were selected with Blasticidin at 20 μg/ml for 2 weeks. Mock-transfected HeLa cells were generated similarly, with a pUNO empty vector. Cells were maintained in DMEM supplemented with 10% heat-inactivated FBS, 2 mM L-glutamine, 100 IU/ml penicillin, and 50 μg/ml streptomycin. Expression of TLR2 was confirmed using an anti-TLR2 antibody (eBioscience) and FTTC-conjugated anti-mouse antibody, on a FACSCalibur flow cytometer (Becton Dickinson). FIGS. 12 and 13 are plasmid maps of pUNO-hTLR2 and pNF-κB-Luc, respectively. […]

TLR2-HeLa cells [2] = assay: IL-8 secretion in TLR2-HeLa cells (ELISA); assay type: cell-based, human; settings: SAA 1 μM, up to 24 hours
Protocol: FIG. 7 is a series of studies showing SAA-induced response in transfected HeLa cells. […] Pam3CSK4 is a known agonist for TLR2 and was used as a control. […] FIG. 7B is time course of SAA-induced IL-8 secretion in TLR2-HeLa cells compared to mock-transfected HeLa cells. SAA was used at 1 μM and the cells were stimulated for up to 24 hours. The supernatant was collected and secreted IL-8 was measured using ELISA.
In addition to the TLR2-HeLa cell line, a HeLa cell line stably expressing TLR2 and a 5xNF-κB luciferase reporter (pNF-kappaB-Luc, FIG. 13) was generated. This second cell line offers improved consistency between experiments by eliminating the need for transiently transfecting the NF-κB reporter each time an reporter assay is conducted. […] The TNFαc-stimulated reporter activity was used as an independent indicator for comparison. Both cell lines have been and will be used in characterization of SAA-induced functions and in screening assays. […] The TLR2-independent effect in IL-8 secretion was determined in parallel, in mock-transfected HeLa cells lacking the exogenous TLR2 (FIG. 7B).

TLR2-HeLa cells [3] = assay: MAP kinase phosphorylation and IκBα degradation in TLR2-HeLa cells (Western blotting); assay type: cell-based, human
Protocol: FIG. 8 is a series of protein gels and corresponding Western blotting graphs showing that SAA-induced TLR2-dependent signaling in transfected cells. Serum-starved TLR2-HeLa and mock-transfected HeLa cells were stimulated with SAA (1 μM) or Pam3CSK4 (1 μg/ml) for the indicated time. The phosphorylation level of ERK1/2 (A), p38 (B) and JNK (C) was detected by Western blotting using antibodies recognizing the phosphorylated forms of the MAP kinases (blots). (D) The level of cytoplasmic IκB ? was detected by Western blotting using an anti-IκB ? antibody and the β-actin levels in the corresponding samples were shown as loading controls. […] A representative set of data, from 3 repeating experiments, is presented.

B1: SAA: Recombinant human SAA purchased from PeproTech; major acute-phase protein of 104 amino acids (protein, UniProt P0DJI8 19-122, looked up)
Serum amyloid A-1 protein: RSFFSFLGEAFDGARDMWRAYSDMREANYIGSDKYFHARGNYDAAKRGPGGAWAAEVITDARENIQRFFGHGAEDSLADQAANEWGRSGKDPNHFRPAGLPEKY
With B1 the “maximal G-CSF production” value ([1]; BMDM, SAA, experiments of FIG. 4) was 446 pg/ml/10^6 cells, the “ability to stimulate G-CSF secretion after heat treatment” value ([1]; SAA 1 μM, boiled 25 min, BMDM, 16 h) was “could no longer stimulate G-CSF secretion” and the “secreted mouse G-CSF” value ([1]; SAA 1 μM, after 8 h) was 155 pg/ml/10^6 cells. For the same molecule, the “secreted mouse G-CSF” value ([1]; SAA 1 μM, after 24 h) was 965 pg/ml/10^6 cells, the “ability to induce G-CSF protein secretion in tlr2−/− BMDM” value ([1]; tlr2−/− vs wild-type BMDM, SAA 1 μM) was “drastically reduced” and the “secretion of IL-8” value (TLR2-HeLa cells [2]) was “time-dependent increase in the secretion of IL-8”. For the same molecule, the IκBα degradation (TLR2-HeLa cells [3]; TLR2-HeLa cells, SAA 1 μM) was “IκBα degradation”, the “phosphorylation of MAP kinases ERK1/2, p38 and JNK” value (TLR2-HeLa cells [3]; TLR2-HeLa cells, SAA 1 μM) was “robust phosphorylation” and the “ERK1/2 phosphorylation in mock-transfected cells” value (TLR2-HeLa cells [3]; mock-transfected HeLa cells, 10 min, SAA 1 μM, Pam3CSK4 1 μg/ml) was “induced ERK1/2 phosphorylation”. The “IκBα degradation in mock-transfected cells” value (TLR2-HeLa cells [3]; mock-transfected HeLa cells, SAA stimulation) was “No IκBα degradation”.
